In the DeepSol protein solubility set:

test: soluble on expression in E. coli; label from the status in PepcDB or PDB records

Soluble on expression in E. coli, not soluble:
MLRQIGEFYHQGEKDDTSRVWMTCWHHGGRILASCGDDKAVRVWSLVGEPDSKMRLECRTTLDDSHTRAVRSVAFSNDGKCLVSASFDASVVVYQQEDGEFAEVNKLEGHESEVKCAVFSKSDEFLATCSRDKSVWFWQQDEDEDFSVSSILQPHTQDVKQVAWHPTEDLLVSCSYDSSIRFYRFDGEDWVTQQKIDGCHVGTVWSIAFDTEGHRLVTVGEDHCIQLFVRENIGSKSADQDTWKSVARYDVENTRWPLYSVAWNSTNDVIATGGGDCKIRLFKISSTPESPVIEHLGVVGRHELDVNHVAWNPNPKFSNLLTSASDDGTIRLWELEI
MSLSHTANPCCSHPCQNRGVCMSVGFDQYKCDCTRTGFYGENCSTPEFLTRIKLFLKPTPNTVHYILTHFKGFWNVVNNIPFLRNAIMSYVLTSRSHLIDSPPTYNADYGYKSWEAFSNLSYYTRALPPVPDDCPTPLGVKGKKQLPDSNEIVEKLLLRRKFIPDPQGSNMMFAFFAQHFTHQFFKTDHKRGPAFTNGLGHGVDLNHIYGETLARQRKLRLFKDGKMKYQIIDGEMYPPTVKDTQAEMIYPPQVPEHLRFAVGQEVFGLVPGLMMYATIWLREHNRVCDVLKQEHPEWGDEQLFQTSRLILIGETIKIVIEDYVQHLSGYHFKLKFDPELLFNKQFQYQNRIAAEFNTLYHWHPLLPDTFQIHDQKYNYQQFIYNNSILLEHGITQFVESFTRQIAGRVAGGRNVPPAVQKVSQASIDQSRQMKYQSFNEYRKRFMLKPYESFEELTGEKEMSAELEALYGDIDAVELYPALLVEKPRPDAIFGETMVEVGAPFSLKGLMGNVICSPAYWKPSTFGGEVGFQIINTASIQSLICNNVKGCPFTSFSVPDPELIKTVTINASSSRSGLDDINPTVLLKERSTELEGHHHHHH
MGSDKIHHHHHHMEVFMITKRPIYNQQLKCVAFEILSCRNVMLNEELTRQLYDLIYHTDTQLPLFVPFSLKKLLEQFETPINNPIILKLSADEIESVYSLTELQDSLFSIALLINTPQQLAWLNFAEYIGLTEQLMSKSDVTKVVQYSKAKNRKIIAYDLNQHVNFEKCKAMTMDYYCGDFLLNSIAEEGTEIAANKLNVLQLIQELQKEDCDLNEITHIIQADPLLSYQLLKLVNSVGFSSGPSIESIDQAVARLGIINLKKWVMLFSMKNISDKPIEVLESGLIRAHMAEELAKKSSNIFSQSAYTAGLLSILDCLLNKPMPALVEQITLAEEIKDALTNKSGPLGDLLSLVIAYEEGHWEEVTQLNINGIDLSQLYIDSLALVSQGTKIMSN
GPEQAMYSFMTYYIAMKTIDAVIQGLDETKAVIIVSEQYDEISDAILHRLGRGTTKLKGKGGYTDEEKDVIYAVVTRLEVTKLKSIVFEVDQNAFITIMNTHETRGGKFKNAIH
RHAIAETLSQEIKQELKDLYMDKADFKVVFTKGKFNREGNETVAFHISTNPGEDFKPLVKVASGGELSRLMLAIKSAFSRREDKTSIVFDEVDTGVSGRVAQAIAQKIYKIGNHGQVLAISHIPQVIAISDYQYFIEKQSSKATTVSTVRLLNQEERIEEIAKML
MTQELGPLARTLSMPYYDDALPAHDQFHAKRVRDIALRLAGDCNGSVDRDVLAASAWLHDIGRPRERAGEIDDHDDWATAEAAQLLAAEGVKPDRIGRIKHCIQAHSIRTSSPEPRTLEAKLLFDADKLDAAGARGLVRLACIVGERSGRTGEKYAVIDDTSATDLGTSNSPDIELLRDWAQERLDTLYTQPGRRLGQTRREFMDEFFTHFAGEIGASGEWLEHHHHHH
MDEFGSLLGDSPRSSVNNWEKGVSIPKRDKLEKIAILGNMLPDQILYGRADEYLYDLIDSSFNVKFSDNILYEIFESVPPEKRSYDDLMWLAVAKYFIDNGTYGKVVGKFNYISMLGIPNLYTGSYQNEFIEQREDYKQQEVKYYVYADPEKNILHIMPFVPNEKNIELLYEFPELLEQQADHEVFTANFEQIGLTLKGSTIVYYGIDKQKLEAKTQAYKYDEAVDLYRIAQLPETLSMFDDEIQKQISFLKSK
MSQGFKTEADVMRNTAHRVDDTNQEVSAELSRLRSIVDGVRASWEGTAQVSFDNLMQRWDASAKGLQDALQSISDNIRGNATSFENVEADNQSAFSAVGGQGLAL
MATLEQKLTVLISDTIESMGYELVGVECQHAGRFLTVRLYIDKEGGVTIDDCSDVSRQVSAIFDVEDPISDKYNLEVSSPGLDRPLFTLAHYARFVGREMVIHLRIPMFDRRKWQGKLTKVDGDLISLEIENNGEHQFIFSNIQKANLIPVFDF

Soluble on expression in E. coli, soluble:
MEGLLIHAVLRELEKELPAQNLGLAFPEEGTAAILLKGRTGRLFNLVLHYRPPTPSLALEPGRLQGEPKTPFQRQLQARVKGPLVEASQLKLDRVAFFRFAGEKGFVDAPPSVLVLEATGRNANLLLLDEEGRILGVDRVITKEVNRYRELRPGLPYTPPPPYRKLDPRTLAEEDLLPLLGKPLKEVIRHVDGVGQELLRELARRAGLTPETPLDEAGLGRVYRALKTLVEDPSLRTELSEELRRRWAEEEKEALRKPLLEALDREIRTLKARLGDYQEALERLEEAEALRRRADLLLARLKEVPKGAEKVVLEGFDGKPVEIPLDPALSPQENARKLYDRARRLEELAEKALDLIPKTEARIRELEAEKERLRTLDLEGLLALAQRPKGEKGLKVGLRYTSPSGFLVLVGRNAKENDLLTRAAHSEDLWFHAQGVPGSHVILKTEGKNPPLEDLLFAARLAAYHSKARGERQVPVDYTRKKHVWRPRKAAPGQVLYTQAKTLFVEGLLPEPREEA
MKLKTTLFGNVYQFKDVKEVLAKANELRSGDVLAGVAAASSQERVAAKQVLSEMTVADIRNNPVIAYEDDCVTRLIQDDVNETAYNQIKNWSISELREYVLSDETSVDDIAFTRKGLTSEVVAAVAKICSNADLIYGAKKMPVIKKANTTIGIPGTFSARLQPNDTRDDVQSIAAQIYEGLSFGVGDAVIGVNPVTDDVENLSRVLDTIYGVIDKFNIPTQGCVLAHVTTQIEAIRRGAPGGLIFQSICGSEKGLKEFGVELAMLDEARAVGAEFNRIAGENCLYFETGQGSALSAGANFGADQVTMEARNYGLARHYDPFIVNTVVGFIGPEYLYNDRQIIRAGLEDHFMGKLSGISMGCDCCYTNHADADQNLNENLMILLATAGCNYIMGMPLGDDIMLNYQTTAFHDTATVRQLLNLRPSPEFERWLESMGIMANGRLTKRAGDPSLFF
MSLSKVFTIGEILVEIMASKIGQPFDQPGIWNGPYPSGAPAIFIDQVTRLGVPCGIISCVGNDGFGDINIHRLAADGVDIRGISVLPLEATGSAFVTYHNSGDRDFIFNIKNAACGKLSAQHVDENILKDCTHFHIMGSSLFSFHMVDAVKKAVTIVKANGGVISFDPNIRKEMLDIPEMRDALHFVLELTDIYMPSEGEVLLLSPHSTPERAIAGFLEEGVKEVIVKRGNQGASYYSANEQFHVESYPVEEVDPTGAGDCFGGAWIACRQLGFDAHRALQYANACGALAVTRRGPMEGTSRLMEIETFIQRHDMSIREAAQEGHHHHHH
MAHHHHHHMQSSALRPSSLLRAYHYVHPKTGRPIRQYRKYGDPRFINNEVALIKGLFALITTDFGMVTQSQLENARLAILRRMPRGSFALTMHTDYEEFPVVQKSPESRMGAGKSNIHHFAYKFTTGVPLFEITALSSRRLNQAEAEGIFLAGRSFIPLQTAVVPRGRVDEYHVFK
MEFTDIAMELSKKAWQASFHHPFILQLQEGNLEPAIFRYYLIQDAYYLKAFSEIYHLLADKTSNQEMKRLLKQNAQGLVEGELFIRQQFFKELEISDQEMEQHPIAPTCYHYISHIYRQFAEPNLAIAFASLLPCPWLYHDIGKSLNLKPSPNPLYQQWIETYITDELEQQIREEGALVNQLYRESDETDKQKMLDAFHISVHMEAKFWEMAYQHQTWKSDLQSLEKGEEMAGDPLEHHHHHH
MSLMTDDIDQRLINALMADSRLSLKALAQVSGLSAPSVAERLRKLEERGVIRGYTLDVDPRCFGYQFQAIVRIRPLPGRLHEVERQIQDIAEFTECDKVTGDDCFIARLQVRSMEQLDTLLDRINGYAETNTAIVKKSPVKRRLPPMT
VPKVTFTVEKGSNEKHLAVLVKYEGDTMAEVELREHGSDEWVAMTKGEGGVWTFDSEEPLQGPFNFRFLTEKGMKNVFDDVVPEKYTIGATYAPEE
